In patent US20230272055A1 (Incyte, published 2023):

Target: MBP protein (UniProt P0AEX9 27-392 = MBP)
Experiment: SPR (Biacore 8K), antibody captured on anti-human IgG (Fc), MBP injected
Procedure: Experiment 1: Recombinant MBP-mutCALR Type 1 fusion protein was custom made at Cepter (cepterbiopartners.com). Data for the interaction of antibodies with recombinant MBP-mutCALR Type 1 fusion protein were collected at 25° C. on a Biacore 8K instrument (Cytiva, Marlborough, Mass.), and all reagents were obtained from Cytiva unless otherwise specified. The experiments were conducted using Tris-buffered saline (pH 7.2), 0.005% Surfactant P20, 1 mM CaCl₂) as running buffer. To prepare the capture surfaces, anti-human IgG (Fc) antibodies (Product #29234600) was amine-coupled onto a CM4 chip (Product #BR100534) under standard conditions using an Amine Coupling Kit (Product #BR100050). […] The kinetics parameters were obtained by applying 1:1 binding model to fit the data from multiple-cycle injection experiments using Biacore Insight Evaluation software.

Binder	binding result
anti-mutCALR antibody clone 2 (antibody, human IgG1, lambda, V domains shown, human IgG1; group 1) VH: EVQLVQSGAEVKKPGASVKVSCKVSGYTLTELSMQWVRQAPGKGLEWMGGFDPDDGETMYAEKFQGRLTVTEDTSTDTVYMELRSLTSEDTALYFCATSPGYDFFDYWGQGTLVTVSS VL: SYELTQPPSVSVAPGKTARITCGGDNIGSKSVHWYQQKPGQAPVLVVYDDSDRPSGIPERFSGSNSGNTATLTISRVEAGDEADYYCQVWDSSIDHLIFGGGTKVTVLG	no binding (tested: 250 nM)
anti-mutCALR antibody clone 18 (antibody, human IgG1, lambda, V domains shown, human IgG1; group 1) VH: EVQLVQSGAEVKKPGASVKVSCKVSGYTLTELSMQWVRQAPGKGLEWMGGFDPDDGETMYAEKFQGRLTVTEDTSTDTVYMELRSLTSEDTALYFCATSPGYDFFDYWGQGTLVTVSS VL: SYVLTQPPSVSVAPGKTARITCGGNNIGSKSVHWYQQKPGQAPVLVVYDDSDRPLGIPERFSGSNSGNTATLTINRVEAGDEADYYCQVWDSSNDLLIFGGGTKLTVLG	no binding (tested: 250 nM)
anti-mutCALR antibody clone 20 (antibody, human IgG1, lambda, V domains shown, human IgG1; group 1) VH: EVQLVQSGAEVKKPGASVKVSCKVSGYTLTELSMQWVRQAPGKGLEWMGGFDPDDGETMYAEKFQGRLTVTEDTSTDTVYMELRSLTSEDTALYFCATSPGYDFFDYWGQGTLVTVSS VL: SYVLTQPPSVSVAPGKTARITCGGNNIGSKGVHWYQQKPGQAPVLVVYDDSDRPSGIPERFSGSNSGNTATLTINRVEAGDEADYYCQVWDSSNDLLIFGGGTKLTVLG	no binding (tested: 250 nM)
anti-mutCALR antibody clone 12 (antibody, human IgG1, lambda, V domains shown, human IgG1; group 1) VH: EVQLVQSGAEVKKPGASVKVSCKVSGYTLTELSMQWVRQAPGKGLEWMGGFDPDGGETMYAEKFQGRLTVTEDTSTDTVYMELRSLTSEDTALYFCATSPGYDFFDYWGQGTLVTVSS VL: SYVLTQPPSVSVAPGQTARVSCGGNNIGSKSVNWYRQKPGQAPVLVIYDDSDRPSGIPERFSGSNSGNTATLTINRVEAGDEADYYCQVWDSSNDLLIFGGGTKLTVLG	no binding (tested: 250 nM)
anti-mutCALR antibody clone 17 (antibody, human IgG1, lambda, human IgG1; group 1) heavy: not shown light: SYVLTQPPSVSVAPGQTARITCGGSDIGDEIVHWYQQKPGQAPVLVVYDDSDRPSGIPERFSGSNSGNTATLTISRAQAGDEADYYCQVWDSSSDHLIFGGGTKLTVLGQPKAAPSVTLFPPSSEELQANKATLVCLISDFYPGAVTVAWKADSSPVKAGVETTTPSKQSNNKYAASSYLSLTPEQWKSHRSYSCQVTHEGSTVEKTVAPTECS	no binding (tested: 250 nM)
anti-mutCALR antibody clone 19 (antibody, human IgG1, lambda, V domains shown, human IgG1; group 1) VH: EVQLVQSGAEVKKPGASVKVSCKVSGYTLTELSMQWVRQAPGKGLEWMGGFDPDDGETMYAEKFQGRLTVTEDTPTDTVYMELRSLTSEDTALYFCATSPGYDFFDYWGQGTLVTVSS VL: SYVLTQPLSVSVALGQTARITCGGSNIGDIRVHWYQQKPGQAPVLVVYDDSDRPSGIPERFSGSNSGNTATLTINRVEAGDEADYYCQVWDSSNDLLIFGGGTKLTVLG	no binding (tested: 250 nM)
anti-mutCALR antibody clone 7 (antibody, human IgG1, lambda, V domains shown, human IgG1; group 1) VH: EVQLVQSGAEVKKPGASVKVSCKVSGYTLTELSMQWVRQAPGKGLEWMGGFDPDDGETMYAEKFQGRLTVTEDTSTDTVYMELRSLTSEDTALYFCATSPGYDFFDYWGQGTLVTVSS VL: SYVLTQPPSVSVAPGQTASITCVGTNFGSKNVHWYQQRPGQAPVLVVYDDSDRPSGIPERFSGSNSGNTATLTINRVEAGDEADYYCQVWDSSNDLLIFGGGTKLTVLG	no binding (tested: 250 nM)
anti-mutCALR antibody clone 10 (antibody, human IgG1, lambda, V domains shown, human IgG1; group 1) VH: EVQLVQSGAEVKKPGASVKVSCKVSGYTLTELSMQWVRQAPGKGLEWMGGFDPDDGETMYAEKFQGRLTVTEDTSTDTVYMELRSLTSEDTALYFCATSPGYDFFDYWGQGTLVTVSS VL: SYELTQPPSVSVAPGQTARIPCGGNNIGSEGVHWYQQKPGQAPVLVVYDDSDRPSGIPERFSGSNSGNTATLTISRVEAGDEADYYCQVWDSSNDLLIFGGGTKLTVLG	no binding (tested: 250 nM)
anti-mutCALR antibody clone 8 (antibody, human IgG1, lambda, V domains shown, human IgG1; group 1) VH: QVQLVQSGAEVKKPGSSVKVSCKVSGYTLTELSMQWVRQAPGKGLEWMGGFDPDDGETMYAEKFQGRLTVTEDTSTDTVYMELRSLTSEDTALYFCATSPGYDFFDYWGQGTLVTVSS VL: SYELTQPPSVSVAPGQTARITCGGNNIGSKSVHWYQQKPGQAPVLVVYDDSDRPSGIPERFSGSNSGRTATLTISRVEAGDEADYHCQVWDSSSDHLVFGGGTKLTVLG	no binding (tested: 250 nM)
anti-mutCALR antibody clone 3 (antibody, human IgG1, lambda, V domains shown, human IgG1; group 1) VH: EVQLVQSGAEVKKPGASVKVSCKVSGYTLTELSMQWVRQAPGKGLEWMGGFDPDDGETMYAERFQGRLTVTEDTSTDTVYMELRSLTSEDTALYFCATSPGYDFFDYWGQGTLVTVSS VL: SYVLTQPPSVSVAPGQTARITCGGNNIGSKSVHWYQQKPGQAPVLVVYDDSDRPSGIPERFSGSNSGNTATLTINRVEAGDEADYYCQVWDSSNDLLIFGGGTKLTVLG	no binding (tested: 250 nM)
anti-mutCALR antibody clone 15 (antibody, human IgG1, lambda, human IgG1; group 1) heavy: not shown light: SYELTQPPSVSVAPGKTARITCGGDNIGSKSVHWYQQKPGQAPVLVVYDDSDRPSGIPERFSGSNSGNTATLTINRVEAGDEADYYCQVWDSSNDLLIFGGGTKLTVLGQPKAAPSVTLFPPSSEELQANKATLVCLISDFYPGAVTVAWKADSSPVKAGVETTTPSKQSNNKYAASSYLSLTPEQWKSHRSYSCQVTHEGSTVEKTVAPTECS	no binding (tested: 250 nM)
anti-mutCALR antibody clone 5 (antibody, human IgG1, lambda, V domains shown, human IgG1; group 1) VH: EVQLVQSGAEVKKPGASVKVSCKVSGYTLTELSMQWVRQAPGKGLEWMGGFDPDDGETMYAEKFQGRLTVTEDTSTDTVYMELRSLTSEDTALYFCATSPGYDFFDYWGQGTLVTVSS VL: SYVLTQPPSVSVAPGQTASITCVGTNFGSKNVHWYQQRPGQAPVLVVYDDSDRPSGIPERFSGSNSGNTATLTISRVEAGDEADYYCQVWDSSSDHLIFGGGTKLTVLG	no binding (tested: 250 nM)
anti-mutCALR antibody clone 16 (antibody, human IgG1, lambda, V domains shown, human IgG1; group 1) VH: EVQLVQSGAEVKKPGASVKVSCKVSGYTLTELSMQWVRQAPGKGLEWMGGFDPDDGETMYAEKFQGRLTVTEDTSTDTVYMELRSLTSEDTALYFCATSPGYDFFDYWGQGTLVTVSS VL: SYVLTQPPSVSVAPGKTARITCGGNNTGSKSVHWYQQKPGQAPVLVVYDDSDRPSGIPERFSGSNSGNTATLTINRVEAGDEADYYCQVWDSSNDLLIFGGGTKLTVLG	no binding (tested: 250 nM)
anti-mutCALR antibody clone 13 (antibody, human IgG1, lambda, V domains shown, human IgG1; group 1) VH: QVQLVQSGAEVKKPGASVKVSCKVSGYTLTELSMQWVRQAPGKGLEWMGGFDPDDGETMYAEKFQGRLTVTEDTSTDTVYMELRSLTSEDTALYFCATSPGYDFFDYWGQGTLVTVSS VL: not shown	no binding (tested: 250 nM)
anti-mutCALR antibody clone 9 (antibody, human IgG1, lambda, V domains shown, human IgG1; group 1) VH: EVQLVQSGAEVKKPGASVKVSCKVSGYTLTELSMQWVRQAPGKGLEWMGGFDPDDGETMYAEKFQGRLTVTEDTSTDTVYMELRSLTSEDTALYFCATSPGYDFFDYWGQGTLVTVSS VL: SYVLTQPPSVSVAPGQTARIPCGGNNIGSKSVHWYQQKPGQAPVLVVYDDRDRPSGIPERFSGSNSGNTATLTINRVEAGDEADYYCQVWDSSNDLLIFGGGTKLTVLG	no binding (tested: 250 nM)
